Data reported in patent US20110091971A1, “Differentiation of Pluripotent Stem Cells” (priority 2008, published 2011).

B1: ACTN1: wild type Activin A mature protein (SwissProt/UniProt: P08476), SEQ ID 2, expressed from applicant's construct (protein)
chain: GLECDGKVNICCKKQFFVSFKDIGWNDWIIAPSGYHANYCEGECPSHIAGTSGSSLSFHSTVINHYRMRGHSPFANLKSCCVPTKLRPMSMLYYDDGQNIIKKDIQNMIVEECGCS
B2: ACTN4: activin A variant peptide, SEQ ID 5 (protein)
chain: GLECDGKVNLCCKKQLFVSFKDIGWNDWIIAPSGYHANHCSGLCPSHIAGTSGSSLSFHSTVINHYRMRGHSPFSDMGACCVPTKLRPMSMLYYDDGQNIIKKDIQNMIVEECGCS
B3: ACTN48: activin A variant peptide, SEQ ID 49 (protein)
chain: GLECDGKVNLCCKKQNFVSFKDIGWNDWIIAPSGYHANECSGLCPSHIAGTSGSSLSFHSTVINHYRMRGHSPFANMGACCIPTKLRPMSMLYYDDGQNIIKKDIQNMIVEECGCS

Assays:
[1] = system: Human Embryonic Stem Cells (H1 hESC line); assay: High content analysis of cell number and SOX17 expression at end of first step of differentiation (Example 12); assay type: cell-based; settings: 100 ng/ml peptide, FIG. 23C-F
Experimental: (§1) Preparation of Cells for Assay: Stock Cultures of Human Embryonic Stem Cells (H1 hESC line) were maintained in an undifferentiated, pluripotent state on growth factor-reduced MATRIGEL™-coated dishes in MEF conditioned medium supplemented with bFGF (PeproTech; Cat #100-18B) with passage on average every, four days. Passage was performed by exposing cell cultures to a solution of 1 mg/ml collagenase (Invitrogen, Cat #17104-019) for five to seven minutes at 37° C. followed by rinsing the monolayer with MEF conditioned medium and gentle scraping to recover cell clusters. Clusters were centrifuged at low speed to collect a cell pellet and remove residual collagenase. Cell clusters were split at a 1:3 or 1:4 ratio for routine maintenance culture or a 1:1 ratio for immediate assay. All human ES cell lines were maintained at passage numbers less than 50 and routinely evaluated for normal karyotypic phenotype and for absence of mycoplasma contamination.
(§2) Cell clusters were evenly resuspended in MEF conditioned medium supplemented with 8 ng/ml bFGF and seeded onto growth factor-reduced MATRIGEL™-coated 24-well, black wall culture plates (Arctic White; Cat #AWLS-303012) in volumes of 0.5 ml/well. Daily feeding was conducted by aspirating spent culture medium from each well and replacing with an equal volume of fresh medium. Plates were maintained at 37° C., 5% CO2 throughout the duration of assay.
(§3) Assay: The assay was initiated by aspirating culture medium from each well and adding back an aliquot (0.5 ml) of test medium. Test conditions for the first step of differentiation were conducted over a three-day period, feeding daily by aspirating and replacing the medium from each well with fresh test medium. Concentrated supernatants of the ACTN peptides were evaluated for protein concentration using a DuoSet ELISA kit for human activin A (R&D Systems; Cat #DY338), as previously described in Example 11. On the first day of assay, ACTN peptides were diluted to a final concentration of 100 ng/ml in RPMI 1640 medium (Invitrogen; Cat #: 22400) with 2% Albumin Bovine Fraction V, Fatty Acid Free (FAF BSA) (MP Biomedicals, Inc; Cat #152401), 8 ng/ml bFGF, and 20 ng/ml Wnt3a (R&D Systems; Cat #1324-WN/CF) and then added to the assay wells. On the second and third day of assay, ACTN peptides were diluted into RPMI 1640 medium supplemented with 2% fatty acid free BSA and 8 ng/ml bFGF, without any Wnt3a and then added to the assay wells. A positive control sample included a commercial source of activin A (PeproTech; Cat #12 0-14) diluted in culture medium with growth factors as indicated. At the conclusion of three days culture, cells from some wells were harvested for analysis by flow cytometry to evaluate levels of CXCR4, a marker of definitive endoderm formation. […]

[2] = system: Human Embryonic Stem Cells (H1 hESC line); assay: FACS analysis of CXCR4 at conclusion of first step of step-wise differentiation (Example 12); assay type: cell-based; settings: 100 ng/ml peptide, end of first step (three days), FIG. 23A, 23B
Experimental: as §1, §2, §3

Molecule | cell number and SOX17 expression (high content analysis) [1] | CXCR4 expression (FACS) [2]
B1 | equivalent results | equivalent and robust CXCR4 expression
B2 | comparable results | equivalent or comparable
B3 | comparable results | equivalent or comparable
